Test results taken from patent publication US20040132025A1, “Ampk-related serine/threonine kinase, designated snark” (priority 2001, published 2004).
Marks after values point to notes of the source that are not given here. Each block holds one compound with its values, some of them ahead of it.

Tests used:
[1] = molecular target: T1, AMPKα1 (Rattus norvegicus, UniProt P54645+P80385); assay: AMPKα1 activity in NRKC cells treated with AICAR; format: cell-based; conditions: treatment with AICAR, data not shown
T1 construct: endogenous in cells; host or cells: NRKC (neonatal rat keratinocytes)

[2] = molecular target: T2, AMPK-α2 (Rattus norvegicus, UniProt P80385+Q09137); assay: AMPK-α2 activity in NRKC cells treated with AICAR; format: cell-based; conditions: ImM AICAR, same assay conditions, data not shown
T2 construct: increased at least 2-fold upon treatment with ImM AICAR in NRKC cells; endogenous in cells; host or cells: NRKC (neonatal rat keratinocytes)

[3] = molecular target: T3, SNARK (Rattus norvegicus, UniProt Q66HE5); assay: Activation of SNARK in NRKC cells using AICAR; format: cell-based; set-up: In the assays performed with SNARK immunoprecipitated from NRKC cell lysates; endogenous in cells; host or cells: NRKC (neonatal rat keratinocytes); conditions: 1 mM AICAR for one hour, kinase assay with 200 μM AMP and SAMS peptide, p<0.05
T3 sequence (Q66HE5 1-630): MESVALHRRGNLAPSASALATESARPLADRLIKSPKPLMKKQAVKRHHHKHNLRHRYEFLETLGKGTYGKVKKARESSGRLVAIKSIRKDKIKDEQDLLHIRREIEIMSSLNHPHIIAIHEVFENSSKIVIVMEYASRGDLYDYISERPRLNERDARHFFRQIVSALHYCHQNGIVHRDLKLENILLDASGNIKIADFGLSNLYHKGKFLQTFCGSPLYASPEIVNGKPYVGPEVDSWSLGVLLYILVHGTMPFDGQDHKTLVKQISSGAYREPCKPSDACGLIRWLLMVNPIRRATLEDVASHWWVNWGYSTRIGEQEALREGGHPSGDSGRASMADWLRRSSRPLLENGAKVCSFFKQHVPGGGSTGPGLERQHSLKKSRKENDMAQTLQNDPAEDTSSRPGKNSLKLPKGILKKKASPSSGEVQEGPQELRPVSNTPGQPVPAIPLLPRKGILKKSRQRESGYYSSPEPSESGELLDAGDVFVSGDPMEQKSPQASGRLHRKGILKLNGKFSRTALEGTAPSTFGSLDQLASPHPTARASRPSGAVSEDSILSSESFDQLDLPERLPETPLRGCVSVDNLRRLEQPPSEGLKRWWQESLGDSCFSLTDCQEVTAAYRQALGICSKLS
Method: FIG. 8.(A) Activation of SNARK in NRKC cells using AICAR. NRKC cells were treated with 0, 0.5 mM, 1 mM or 2 mM AICAR for 1 hour. SNARK protein was immunoprecipitated from 500 μg of cell lysates with SNARK antiserum and kinase assays were performed in the presence of 200 μM AMP using the SAMS peptide. Solid box represents control (0 mM AICAR) samples and hatched boxes represent AICAR-treated samples. Data is expressed as phosphotransferase activity relative to control values (control=1) and represents the means±S.E.M. for 2 individual experiments with at least 10 samples per group per experiment. *p<0.06, relative to control values. […] Results are expressed as phosphotransferase activity relative to control values (control=1) and represents the mean±S.E.M. from 2 individual experiments with at least 10 samples per group per experiment. *p<0.03, relative to control values. […]
The adenosine analogue, 5-aminoimidizole-4-carboxamide riboside (AICAR), provides a means of stimulating AMPK activity in whole cells, even in the presence of high glucose concentrations, and mimics the effects of AMP on the AMPK cascade. Intriguingly, SNARK activity was induced 2.8-fold (p<0.05) in NRKC cells when treated with 1 mM AICAR for one hour (FIG. 8A, hatched box), as compared to SNARK activity measured in untreated NRKC cells (solid box).

[4] = molecular target: T3, SNARK; assay: SNARK phosphotransferase activity (SAMS peptide) assayed in the presence of AMP, wildtype and SNARK-transfected BHK cell lysates; format: biochemical, hamster; set-up: The complete open reading frame of rat SNARK was subcloned into the pcDNA3.1 vector; expressed in transfected cells; conditions: 200 μM AMP in assay; SNARK-transfected BHK cell lysates
Method: (§1) FIG. 7. […] SNARK protein was immunoprecipitated from 500 μg of cell lysate from wildtype BHK, BHK−1, BHK+1 and BHK+11 cells. Kinase assays were performed using the 200 μM SAMS peptide as substrate in kinase reaction cocktail. NRKC cells (stippled box); wildtype BHK cells (solid box); BHK+1 and +11 cells (hatched boxes). Results are the means±S.E.M. for 2 experiments (n=5 each time). For comparative purposes, AMPKα2 activity was assayed in these cell lines and found to be equivalent to, 4-fold lower and 1.5-fold lower than the SNARK activity levels measured under basal growth conditions in wildtype BHK, SNARK-transfected BHK and NRKC cell lines, respectively (data not shown).
(§2) Kinase Assay—Following immunoprecipitation with antiserum, SNARK activity was analysed by performing kinase assays with immunoprecipitated SNARK and a variety of substrates (MBP, B-casein, whole histone fraction, protamine sulphate and a synthetic peptide substrate (HMRSAMSGLHLVKRR, ‘SAMS’ peptide). Kinase assays with the SAMS peptide were performed essentially as described, except that the three washes were done with IP buffer containing 500 mM NaCl followed by a final wash in kinase assay buffer. For kinase assays performed to determine substrate specificity (with substrates other than SAMS peptide), reactions included 30 ug of substrate, 500 nM PKA inhibitor peptide and 1 uM PKC inhibitor peptide. […]

[5] = tested on: SNARK; assay: as above; format: biochemical, hamster; conditions: 200 μM AMP in assay; wildtype BHK cell lysates
Method: as §1, §2

[6] = molecular target: T3, SNARK; assay: SNARK phosphotransferase activity (SAMS peptide) assayed in the presence of AMP, NRKC cell lysates; format: biochemical; set-up: In the assays performed with SNARK immunoprecipitated from NRKC cell lysates; endogenous in cells; host or cells: NRKC (neonatal rat keratinocytes); conditions: 200 μM AMP in assay; NRKC cells; p<0.001
Method: as §1, §2

[7] = molecular target: T3, SNARK; assay: Kinase assay of immunoprecipitated SNARK with candidate substrates (substrate specificity); format: biochemical; set-up: In the assays performed with SNARK immunoprecipitated from NRKC cell lysates; endogenous in cells; host or cells: NRKC (neonatal rat keratinocytes); conditions: for Activity (phosphotransferase activity of SNARK towards substrate): SNARK immunoprecipitated from 500 ug NRKC cell lysate, SAMS peptide 250 uM or 30 ug of other substrate, 1 μM PKC inhibitor and 500 nM PKA inhibitor peptides, 30 C, means±S.E.M.; for Ability of SNARK to phosphorylate the substrate: SNARK immunoprecipitated from NRKC cell lysates, PKA and PKC peptide inhibitors included
Method: Kinase Assay—Following immunoprecipitation with antiserum, SNARK activity was analysed by performing kinase assays with immunoprecipitated SNARK and a variety of substrates (MBP, B-casein, whole histone fraction, protamine sulphate and a synthetic peptide substrate (HMRSAMSGLHLVKRR, ‘SAMS’ peptide). Kinase assays with the SAMS peptide were performed essentially as described, except that the three washes were done with IP buffer containing 500 mM NaCl followed by a final wash in kinase assay buffer. For kinase assays performed to determine substrate specificity (with substrates other than SAMS peptide), reactions included 30 ug of substrate, 500 nM PKA inhibitor peptide and 1 uM PKC inhibitor peptide. Activities were calculated as fmol of phosphate incorporated into the SAMS peptide/min per milligram of lysate subjected to immunoprecipitation, minus the activity obtained with a blank reaction (cell lysate and Protein A-Sepharose only).
Peptide inhibitors of PKA and PKC were included in these reactions to eliminate phosphorylation of these substrates by these enzymes.
Immunoprecipitation of 500 ug of NRKC cell lysate with SNARK antiserum was performed as described above. Phosphotransferase activity was assayed with either SAMS peptide (250 uM) or 30 ug of dephosphorylated MBP, dephosphorylated β-casein, whole histone fraction or protamine sulfate in the presence of 1 μM PKC inhibitor and 500 nM PKA inhibitor peptides. Phosphortransferase activity is expressed in fmol of phosphate transferred to the SAMS peptide/min at 30 C per mg of protein subjected to immunoprecipitation. Results are means±S.E.M. for two individual assays with at least eight samples per group. *p<0.01 compared with all other substrates.

[8] = molecular target: SAMS peptide; assay: cell-based or functional assay
[9] = molecular target: protamine sulfate; assay: cell-based or functional assay
[10] = molecular target: whole histone fraction; assay: cell-based or functional assay
[11] = molecular target: dephosphorylated myelin basic protein; assay: cell-based or functional assay
[12] = molecular target: dephosphorylated B-casein; assay: cell-based or functional assay

T1 sequence (P54645 whole entry): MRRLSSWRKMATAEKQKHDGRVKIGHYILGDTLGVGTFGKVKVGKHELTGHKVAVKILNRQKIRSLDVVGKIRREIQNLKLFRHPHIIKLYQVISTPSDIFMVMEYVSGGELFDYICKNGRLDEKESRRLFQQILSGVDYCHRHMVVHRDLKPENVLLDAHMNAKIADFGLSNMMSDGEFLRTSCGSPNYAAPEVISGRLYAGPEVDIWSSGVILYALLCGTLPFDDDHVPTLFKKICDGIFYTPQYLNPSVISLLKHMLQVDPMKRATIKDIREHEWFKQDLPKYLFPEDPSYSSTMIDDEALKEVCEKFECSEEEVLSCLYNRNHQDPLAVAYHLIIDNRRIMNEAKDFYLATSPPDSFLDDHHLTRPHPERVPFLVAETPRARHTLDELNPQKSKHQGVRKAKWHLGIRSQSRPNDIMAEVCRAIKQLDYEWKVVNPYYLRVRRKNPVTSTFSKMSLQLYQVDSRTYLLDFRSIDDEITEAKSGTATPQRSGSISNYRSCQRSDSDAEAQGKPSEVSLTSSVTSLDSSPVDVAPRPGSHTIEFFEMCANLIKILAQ
T1 sequence (P80386 whole entry partner): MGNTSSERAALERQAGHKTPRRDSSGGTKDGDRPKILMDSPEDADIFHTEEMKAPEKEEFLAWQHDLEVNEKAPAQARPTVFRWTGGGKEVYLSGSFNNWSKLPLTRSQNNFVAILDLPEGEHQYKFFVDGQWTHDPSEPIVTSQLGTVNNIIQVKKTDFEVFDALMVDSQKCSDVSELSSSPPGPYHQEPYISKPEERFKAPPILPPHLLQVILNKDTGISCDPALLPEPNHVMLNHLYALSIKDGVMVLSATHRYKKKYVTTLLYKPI
T1 sequence (P80385 whole entry): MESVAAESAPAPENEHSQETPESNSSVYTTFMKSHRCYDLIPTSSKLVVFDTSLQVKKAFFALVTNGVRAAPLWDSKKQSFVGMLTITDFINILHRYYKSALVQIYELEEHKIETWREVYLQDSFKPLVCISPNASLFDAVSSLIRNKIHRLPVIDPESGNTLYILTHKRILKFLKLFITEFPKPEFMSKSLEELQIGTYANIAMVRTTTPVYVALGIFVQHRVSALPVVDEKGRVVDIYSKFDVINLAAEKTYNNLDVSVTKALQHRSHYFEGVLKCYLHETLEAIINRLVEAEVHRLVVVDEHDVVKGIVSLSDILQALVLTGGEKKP
T2 sequence (Q09137 whole entry): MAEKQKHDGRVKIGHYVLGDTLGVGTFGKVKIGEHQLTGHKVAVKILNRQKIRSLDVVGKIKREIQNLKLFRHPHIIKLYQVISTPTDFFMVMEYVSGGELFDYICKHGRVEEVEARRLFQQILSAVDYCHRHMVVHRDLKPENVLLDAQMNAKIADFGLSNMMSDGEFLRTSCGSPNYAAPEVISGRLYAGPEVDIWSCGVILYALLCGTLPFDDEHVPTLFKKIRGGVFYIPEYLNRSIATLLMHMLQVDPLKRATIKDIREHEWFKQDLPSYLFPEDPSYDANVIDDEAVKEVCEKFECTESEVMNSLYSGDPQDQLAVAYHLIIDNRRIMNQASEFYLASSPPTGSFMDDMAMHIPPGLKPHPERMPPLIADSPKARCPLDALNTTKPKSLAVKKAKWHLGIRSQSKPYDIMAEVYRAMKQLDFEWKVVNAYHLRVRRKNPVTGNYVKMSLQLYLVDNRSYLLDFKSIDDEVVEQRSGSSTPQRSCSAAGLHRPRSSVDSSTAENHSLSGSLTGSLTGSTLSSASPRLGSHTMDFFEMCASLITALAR
T2 sequence (P80386 whole entry partner): as the sequence (P80386 whole entry partner) above
T2 sequence (P80385 whole entry): as the sequence (P80385 whole entry) above

Compound: NC(=O)c1ncn([C@@H]2O[C@H](CO)[C@@H](O)[C@H]2O)c1N [AICAR, 5-aminoimidizole-4-carboxamide riboside]
Stimulation of AMPKα1 activity [1]: not stimulated
Increase in AMPK-α2 activity over basal [2]: at least 2 fold
Induction of SNARK activity relative to untreated cells [3]: 2.8 fold

Change in SNARK phosphotransferase activity [4]: no significant change
Increase in SNARK phosphotransferase activity [6]: 1.7 fold
Compound: Nc1ncnc2c1ncn2[C@@H]1O[C@H](COP(=O)(O)O)[C@@H](O)[C@H]1O [AMP]
Change in SNARK phosphotransferase activity [5]: no significant change

Activity (phosphotransferase activity of SNARK towards substrate) [7]: 145 ± 46* fmol/min per mg
Ability of SNARK to phosphorylate the substrate [7]: able to phosphorylate
Compound: HMRSAMSGLHLVKRR [SAMS peptide, synthetic peptide AMPK substrate corresponding to the site in rat acetyl-CoA carboxylase phosphorylated by AMPK]

Ability of SNARK to phosphorylate the substrate [7]: minimal
Compound: Protamine sulfate
Activity (phosphotransferase activity of SNARK towards substrate) [7]: 7 ± 2 fmol/min per mg

Activity (fmol/min per mg); phosphotransferase activity of SNARK immunoprecipitated from NRKC cell lysate (fmol/min per mg) [8]: 145
Activity (fmol/min per mg); phosphotransferase activity of SNARK immunoprecipitated from NRKC cell lysate (fmol/min per mg) [9]: 7
Activity (fmol/min per mg); phosphotransferase activity of SNARK immunoprecipitated from NRKC cell lysate (fmol/min per mg) [10]: 19
Activity (fmol/min per mg); phosphotransferase activity of SNARK immunoprecipitated from NRKC cell lysate (fmol/min per mg) [11]: 91
Activity (fmol/min per mg); phosphotransferase activity of SNARK immunoprecipitated from NRKC cell lysate (fmol/min per mg) [12]: 37
Compound: rat SNARK protein (enzyme)
